Measured values published in patent publication US20260176344A1 (SUZHOU ALPHAMAB, published 2026).

How the values were obtained:
[1] = biological target: T1, GIPR-ECD-laFc (an alpaca Fc-fused human GIPR extracellular region fragment) (human, UniProt P48546 22-138); assay: phage supernatant ELISA, coated antigen, anti-HA HRP, A450-A650
T1 construct: extracellular domain; not shown: alpaca Fc
T1 sequence (looked up): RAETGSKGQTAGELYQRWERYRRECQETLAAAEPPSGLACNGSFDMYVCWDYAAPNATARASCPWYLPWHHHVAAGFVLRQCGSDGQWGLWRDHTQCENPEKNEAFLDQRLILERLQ

[2] = biological target: T2, Control-2 (C2), a laFc-containing fusion protein; assay: phage supernatant ELISA, coated control protein, anti-HA HRP, A450-A650
T2 construct: Negative panning and ELISA control

[3] = biological target: T3, Control-1 (C1), a muFc-containing fusion protein; assay: as above
T3 construct: Negative panning and ELISA control

[4] = biological target: T4, GIPR-ECD-chis (a his tag-fused human GIPR extracellular region fragment) (human, UniProt P48546 22-138, limits assumed); assay: BLI, antibody on AHC sensor, GIPR-ECD-chis in solution
T4 construct: extracellular domain; not shown: his tag
T4 sequence (looked up): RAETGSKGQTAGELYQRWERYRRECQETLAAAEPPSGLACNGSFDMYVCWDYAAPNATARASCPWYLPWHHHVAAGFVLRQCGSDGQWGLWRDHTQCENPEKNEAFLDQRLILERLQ

[5] = biological target: T5, human GIPR expressed on HEK293T cells (human, UniProt P48546 22-466); assay: cell binding on 293T-GIPR cells, anti-human SULFO-TAG secondary antibody, MSD read-out plotted as MFI
T5 construct: whole, on cells; Two cell lines are used (293T-GIPR; 293T-GIPRFL-GFP-PURO-5, stably expressing full-length human GIPR on the membrane); both are treated as human GIPR on cells; also called 293T-GIPR; 293T-GIPRFL-GFP-PURO-5
T5 sequence (looked up): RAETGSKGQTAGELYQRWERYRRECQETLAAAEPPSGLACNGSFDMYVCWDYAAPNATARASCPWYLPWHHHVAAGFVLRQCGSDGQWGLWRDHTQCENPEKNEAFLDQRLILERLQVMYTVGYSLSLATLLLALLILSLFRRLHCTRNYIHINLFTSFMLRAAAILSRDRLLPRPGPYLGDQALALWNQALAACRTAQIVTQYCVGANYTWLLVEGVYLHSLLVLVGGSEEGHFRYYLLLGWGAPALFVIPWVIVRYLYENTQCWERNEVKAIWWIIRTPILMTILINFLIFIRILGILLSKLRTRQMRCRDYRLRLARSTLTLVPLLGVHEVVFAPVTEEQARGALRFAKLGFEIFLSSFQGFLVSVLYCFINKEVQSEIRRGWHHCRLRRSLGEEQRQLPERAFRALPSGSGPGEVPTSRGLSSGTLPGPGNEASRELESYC

[6] = biological target: T5, human GIPR expressed on HEK293T cells; assay: cell-based or functional assay

B1: iGI-27 (VHH)
VHH: QVQLVESGGALVQTGGSLRLFCAASGDTICITNMNWYRQAPGKGREFVAAITRSGRTLYADYVKGRFTISRDNARNTMSLQMNSMTSEDTAVYYCNADQNQTICAAEPSAWGRGTQVTVSS
notes: Tested as supernatant of a helper-phage-rescued clone (pComb3XSS), detected by anti-HA tag
OD value [1]: 2.23 OD | OD value [2]: 0.023 OD | OD value [3]: 0.018 OD

B2: iGI-72 (VHH)
VHH: QVQLVESGGGLVQPGGSLRLSCAASRYTLDYYAIGWFRQAPGKEREGVSCINSKDGSTYYADSVKGRFTISKDNAKNTVYLQMNSLKPEDTAVYYCAAGYDPWSGIPPVQAMCVMGYDYWGQGTQVTVSS
notes: as for B1
OD value [1]: 2.2 OD | OD value [2]: 0.077 OD | OD value [3]: 0.019 OD

B3: iGI-1198 (VHH)
VHH: QVQLQESGGGLVQPGGSLRLSCVASGSGFSIVAMGWYRQTPGKQRELVAAITSGGNTNYADSVKGRFTISRDNAKNTIYLQMNSLKPEDTAVYYCNADPGVVAGPYAGMDFWGKGTQVTVSS
notes: as for B1
OD value [1]: 1.95 OD | OD value [2]: 0.027 OD

B4: iGI-44 (VHH)
VHH: QVQLVESGGGLVQAGGSLKLSCAASGRTFSSKAMGWFRQAPGKEREFVAAINWSGDRTYHVNSIKGRFTISRDNAKNTVYLQMNSLKPEDTAVYYCTADRRDRATIPFQWHYWGQGTQVTVSS
notes: as for B1
OD value [1]: 2.31 OD | OD value [2]: 0.023 OD | OD value [3]: 0.018 OD

B5: iGI-51 (VHH)
VHH: QVQLVESGGKLVQAGGSLRLDCVASGRTFSYYAIGWYRQAPGKEREFVAAIRASGGSTYYADSVKGRFTASRDNAKNTGYLQMNSLKPEDTAVYFCYAATIVPITPSTHGYWGQGTQVTVSS
notes: as for B1
OD value [1]: 2.17 OD | OD value [2]: 0.027 OD | OD value [3]: 0.042 OD

B6: Maridebart (antibody, V domains shown)
VH: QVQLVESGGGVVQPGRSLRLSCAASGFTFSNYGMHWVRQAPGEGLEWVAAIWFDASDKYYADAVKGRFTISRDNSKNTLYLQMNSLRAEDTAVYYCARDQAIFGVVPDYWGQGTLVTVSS
VL: EIVMTQSPATLSVSPGERATLSCRASQSVSSNLAWYQQKPGQAPRLLIYGAATRATGIPARVSGSGSGTEFTLTISSLQSEDFAVYYCQQYNNWPLTFGGGTKVEIK
Kd [4]: 16.3 nM | koff [4]: 0.00222 s⁻¹ | kon [4]: 136000 M⁻¹ s⁻¹ | EC50 [5]: 1.18 nM | EC50 of the inhibition rate (%) of GIP-induced cAMP expression in 293T-GIPR cells [6]: 0.351 mg/L

B7: iGI-9 (VHH)
VHH: QVQLVESGGGLVQPGGSLRLSCETSKILFSSAYTMGWYRQAPGKQRELVATITTDYITNYVDSVKGRFTISRDNAKNTVYLQMNTLKLEDTAVYYCNARWGRDYWGQGTQVTVSS
notes: as for B1
OD value [1]: 2.21 OD | OD value [2]: 0.028 OD | OD value [3]: 0.018 OD
